Data on two molecules can be found in patent publication US20070099268A1, “Chimeric HCN channels” (priority 2005, published 2007).

For assay [1], the target named is rat Cx43 on transfected HeLa cells (rat) (UniProt P08050).
Assay [2] has as its target rat Cx40 on transfected HeLa cells (rat) (UniProt P28234).
Assay [3] addresses mouse Cx45 on transfected HeLa cells (mouse) (UniProt P28229).
The test system of assay [4] is neonatal rat ventricular myocytes. The experiment in a line: Voltage clamp of HCN2 or HCN4 plasmid (lipofectin) expressed in neonatal rat ventricular myocytes. In kind it is cell-based. From the text: cDNAs encoding mouse HCN2 (mHCN2, GenBank AJ225122) or HCN4 (mHCN4, GenBank deposit in progress) were subcloned into the pCI mammalian expression vector (Promega, Madison, Wis.). The resulting plasmids (pCI-mHCN2 or pCI-mHCN4) were used for neonatal rat ventricular myocyte transfection, as indicated. A separate plasmid (pEGFP-CI; Clontech, Palo Alto, Calif.) expressing the gene of enhanced green fluorescent protein (EGFP) as a visual marker for successful DNA transfer was included in all transfection experiments. For transfection, 2 μg of pCI-mHCN and […] of pEGFP-CI were first incubated in 200 μl of SFM containing 10 μl of lipofectin (Gibco Life Technologies, Rockville, Md.) at room temperature for 45 min. The mixture was then added to a 35-mm petri dish containing […] suspended in 0.8 ml of SFM. After overnight incubation at 37° C. in a CO2 incubator, the medium containing the plasmids and lipofectin was discarded and the dish was refilled with 2 ml of fresh SFM.
The whole-cell voltage clamp technique was employed to record native If or expressed IHCN2 or IHCN4. Action potentials were recorded in current clamp mode, again using a whole cell patch electrode. Experiments were carried out on cells superfused at 35° C. Extracellular solution contained (mM): NaCl, 140; NaOH, 2.3; MgCl2, 1; KCl, 5.4; CaCl2, 1.0; HEPES, 5; glucose, 10; pH 7.4. To record from myocytes expressing native currents (If), myocytes expressing HCN2 (IHCN2) or HCN4 (IHCN4), [K^+]0 was increased to 10 mM, and MnCl2 (2 mM) and BaCl2 (4 mM) added to the superfusate to eliminate calcium and inward rectifier (IK1) currents. In some experiments CsCl (4 mM) was used extracellularly to identify the pacemaker current as the Cs-sensitive current. The patch pipette solution included (mM): aspartic acid, 130; KOH, 146; NaCl, 10; CaCl2, 2; EGTA-KOH, 5; Mg-ATP, 2; HEPES-KOH, 10, pH 7.2. Where indicated, 10 μM cAMP was included in the pipette solution. A fast solution changing apparatus expedited the experimental protocols. The pipette resistance was typically 1-3 M. An Axopatch-200B amplifier and pClampS software (Axon Instruments) were used for acquisition and data analysis. […]
The activation relation of the native or expressed current can be determined from the steady-state I-V relation. In this case, the reversal potential (Vf) was separately determined from the fully activated I-V relation (Accili et al., 1991) and used to generate the activation relation (y=I/(gmax*(V−Vf)), where gmax is the maximal conductance). […] Tail currents were measured at a negative voltage (−125 mV) to avoid contamination by transient outward and other currents at less negative voltages. […]

Assay [5] concerns mammalian expression systems. The settings on record: cited from earlier work.

For the molecule “human mesenchymal stem cells (cells without a defined receptor)”, the junctional conductance in cell pairs (double voltage clamp) in assay [1] came to 7.9 nS; in assay [2] it was 4.6 nS; in assay [3], 11 nS.

B1: HCN4: mouse HCN4 channel isoform (protein, UniProt O70507 1-1201, looked up)
Potassium/sodium …: MDKLPPSMRKRLYSLPQQVGAKAWIMDEEEDGEEEGAGGRQDPSRRSIRLRPLPSPSPSVAAGCSESRGAALGATESEGPGRSAGKSSTNGDCRRFRGSLASLGSRGGGSGGAGGGSSLGHLHDSAEERRLIAAEGDASPGEDRTPPGLATEPERPATAAQPAASPPPQQPPQPASASCEQPSADTAIKVEGGAAASDQILPEAEVRLGQSGFMQRQFGAMLQPGVNKFSLRMFGSQKAVEREQERVKSAGFWIIHPYSDFRFYWDLTMLLLMVGNLIIIPVGITFFKDENTTPWIVFNVVSDTFFLIDLVLNFRTGIVVEDNTEIILDPQRIKMKYLKSWFVVDFISSIPVDYIFLIVETRIDSEVYKTARALRIVRFTKILSLLRLLRLSRLIRYIHQWEEIFHMTYDLASAVVRIVNLIGMMLLLCHWDGCLQFLVPMLQDFPHDCWVSINGMVNNSWGKQYSYALFKAMSHMLCIGYGRQAPVGMSDVWLTMLSMIVGATCYAMFIGHATALIQSLDSSRRQYQEKYKQVEQYMSFHKLPPDTRQRIHDYYEHRYQGKMFDEESILGELSEPLREEIINFNCRKLVASMPLFANADPNFVTSMLTKLRFEVFQPGDYIIREGTIGKKMYFIQHGVVSVLTKGNKETKLADGSYFGEICLLTRGRRTASVRADTYCRLYSLSVDNFNEVLEEYPMMRRAFETVALDRLDRIGKKNSILLHKVQHDLNSGVFNYQENEIIQQIVRHDREMAHCAHRVQAAASATPTPTPVIWTPLIQAPLQAAAATTSVAIALTHHPRLPAAIFRPPPGPGLGNLGAGQTPRHPRRLQSLIPSALGSASPASSPSQVDTPSSSSFHIQQLAGFSAPPGLSPLLPSSSSSPPPGACGSPPAPTPSTSTAAAASTTGFGHFHKALGGSLSSSDSPLLTPLQPGARSPQAAQPPPPLPGARGGLGLLEHFLPPPPSSRSPSSSPGQLGQPPGELSLGLAAGPSSTPETPPRPERPSFMAGASGGASPVAFTPRGGLSPPGHSPGPPRTFPSAPPRASGSHGSLLLPPASSPPPPQVPQRRGTPPLTPGRLTQDLKLISASQPALPQDGAQTLRRASPHSSGESVAAFSLYPRAGGGSGSSGGLGPPGRPYGAIPGQHVTLPRKTSSGSLPPPLSLFGARAASSGGPPLTTAAPQREPGARSEPVRSKLPSNL
For B1, the “activation kinetics compared to HCN2” value in assay [4] (for most voltages) is “markedly slower”. The “slope factor (K)” value in assay [4] (lipofectin transfection) turned out to be 6.7±0.7 mV. Besides, the “midpoint of activation reported in other mammalian expression studies” value in assay [5] was −80 to −109 mV.
